# Results taken from US20160376353A1 (DECIMMUNE THERAPEUTICS, published 2016).
# Substitutions are numbered along the chain they refer to. In names and notes the source's numbering stands. Ends that are not written are not given here.
# B1: H2-21G6 / L2-21G6 (Table 2, constant region not stated) (antibody, V domains shown)
# VH: QVQLVQSGAEVKKPGASVKVSCKASGYTFTSYYMYWVRQAPGQGLEWIGGINPSNGGTNFNEKFKSKATMTVDKSTSTAYMELRSLRSDDSAVYYCTRWGYDREWFAYWGQGTLVTVSS
# VL: DIVMTQSPLSLPVTPGEPASISCRSSKSLLHSNGNTYLYWFLQKPGQSPQLLIYRMSNLASGVPDRFSGSGSGTDFTLKISRVEAEDVGVYYCMQHLEYPFTFGQGTKLEIKR
# notes: human kappa light chain; also called H2/L2
# B2: H3-21G6 / L1-21G6 (Table 2, constant region not stated) (antibody, V domains shown)
# VH: B1 VH with A16S, M70I, R84S, D89E, S91T
# VL: DIVMTQSPATLSVSPGERATISCRSSKSLLHSNGNTYLYWFQQKPGQPPKVLIYRMSNLASGVPARFSGSGSGTDFTLTISSVEPEDFATYYCMQHLEYPFTFGGGTKLEIKR
# notes: human kappa light chain; also called H3/L1
# B3: H1-21G6 / L1-21G6 (Table 2, constant region not stated) (antibody, V domains shown)
# VH: B1 VH with K12V, V20L, R38K, M70L, T76A, R84S, D89E, S91T
# VL: B2 VL
# notes: human kappa light chain; also called H1/L1
# B4: Murine 21G6 antibody (antibody, V domains shown)
# VH: QVQLQQPGAELVKPGASVKLSCKASGYTFTSYYMYWVKQRPGQGLEWIGGINPSNGGTNFNEKFKSKATLTVDKSSSTAYMQLSSLTSEDSAVYYCTRWGYDREWFAYWGQGTLVTVSA
# VL: DIVMTQAAPSVPVTPGESVSISCRSSKSLLHSNGNTYLYWFLQRPGQSPQVLIYRMSNLASGVPDRFSGSGSGTAFTLRISRVEAEDVGVYYCMQHLEYPFTFGSGTKLEIKR
# notes: also called m21G6
# B5: Chimeric 21G6, human heavy chain constant region IgG1 with Q297 mutation (antibody, V domains shown)
# VH: B4 VH
# VL: B4 VL
# notes: Human IgG1 constant region with Asn 297 to Gln; also called ch21G6 N297Q
# Assays:
# [1] = molecular target: T1, Biotin-labeled N2 peptide (also: biotin label, position not given here); assay: SPR (BIACORE X100), biotin-N2 peptide on NeutrAvidin chip, antibody in solution; upper end of the printed range 2.0-3.2
# T1 construct: also called immobilized N2
# T1 peptide: LMKNMDPLNDNV
# Excerpt: (§1) The remaining sequences represent the germline sequences with the highest homology that encode productive antibody. All of the humanized sequences maintain the murine 21G6 CDR regions which are shown inside the boxes in FIG. 1. The humanized variable regions were cloned into a vector containing wild type human IgG1, human IgG1 containing a mutation at amino acid 297 (Asn 297 to Q297), human IgG4 containing a mutation at amino acid 228 (serine to proline) and human kappa light chain. Each antibody (heavy and light) combination was expressed by transient co-transfection in 293A cells (in the presence of low Ig serum). The antibody containing supernatants were collected and analyzed for binding to the N2 peptide by ELISA and BIACORE™ X100 system. All experiments were performed using a BIACORE™ X100 system. […]
# [2] = molecular target: T1, Biotin-labeled N2 peptide; assay: SPR (BIACORE X100), biotin-N2 peptide on NeutrAvidin chip, antibody in solution; steady state affinity
# Excerpt: (§2) The humanized variable regions were cloned into a vector containing wild type human IgG1, human IgG1 containing a mutation at amino acid 297 (Asn 297 to Q297), human IgG4 containing a mutation at amino acid 228 (serine to proline) and human kappa light chain. Each antibody (heavy and light) combination was expressed by transient co-transfection in 293A cells (in the presence of low Ig serum). The antibody containing supernatants were collected and analyzed for binding to the N2 peptide by ELISA and BIACORE™ X100 system. All experiments were performed using a BIACORE™ X100 system. For antibody capture experiments, a CM5 chip was prepared by 10 ul/minute injection of EDC/NHS (N-ethyl-N′-(3-dimethylaminopropyl) carbodiimide (EDC), N-hydroxysuccinimide (NHS) for 7 minutes, followed by a 10 ul/minute injection of anti-human Fc (GE Lifesciences) at a concentration of 25 ug/ml in sodium acetate at pH 5 for 3 minutes. Ethanolamine-HCl was injected for 7 minutes at 10 ul/minute. The chimeric or humanized antibodies were captured onto flow cell 2 and N2 peptide at varying concentrations was flowed over flow cells 1 and 2 at a rate of 30 ul/minute with a contact time of 120 seconds and a dissociation period of 120 seconds. Complete removal of captured antibody was accomplished by regeneration with 3M MgCl2 for 30 seconds at a flow rate of 10 ul/minute. For peptide immobilized experiments, a CM5 chip was prepared by 10 ul/minute injection of EDC/NHS (N-ethyl-N′-(3-dimethylaminopropyl) carbodiimide (EDC), N-hydroxysuccinimide (NHS) for 7 minutes, followed by a 10 ul/minute injection of NEUTRAVIDIN® protein (ThermoFisher Pierce) at a concentration of 5 ug/ml in sodium acetate, pH 5 to an immobilization response of 100-200RU. Ethanolamine-HCl was injected for 7 minutes at 10 ul/minute. Biotin-labeled N2 peptide was captured on flow channel 2 with the goal of an experimental Rmax of about 50-100RU. Purified chimeric or humanized antibodies were flowed over both flow channels at a rate of 30 ul/min for a contact time of 120 seconds and allowed to dissociate for 600 seconds.
# [3] = molecular target: T1, Biotin-labeled N2 peptide; assay: SPR (BIACORE X100), biotin-N2 peptide on NeutrAvidin chip, antibody in solution; upper end of the printed range 8.6-9.1
# Excerpt: as §1
# [4] = molecular target: T1, Biotin-labeled N2 peptide; assay: SPR (BIACORE X100), biotin-N2 peptide on NeutrAvidin chip, antibody in solution; kd/ka (monovalent)
# Excerpt: as §2, with “The remaining sequences represent the germline sequences with the highest homology that encode productive antibody. All of the humanized sequences maintain the murine 21G6 CDR regions which are shown inside the boxes in FIG. 1. The humanized” for “The humanized”
# [5] = molecular target: T1, Biotin-labeled N2 peptide; assay: SPR (BIACORE X100), biotin-N2 peptide on NeutrAvidin chip, antibody in solution; upper end of the printed range 3-6.5
# Excerpt: as §1
# [6] = molecular target: T1, Biotin-labeled N2 peptide; assay: SPR (BIACORE X100), biotin-N2 peptide on NeutrAvidin chip, antibody in solution; upper end of the printed range 2.0-5.2
# Excerpt: as §1
# [7] = molecular target: T1, Biotin-labeled N2 peptide; assay: SPR (BIACORE X100), biotin-N2 peptide on NeutrAvidin chip, antibody in solution; upper end of the printed range 4.3-6.5
# Excerpt: as §1
# [8] = molecular target: T1, Biotin-labeled N2 peptide; assay: SPR (BIACORE X100), biotin-N2 peptide on NeutrAvidin chip, antibody in solution; upper end of the printed range 1.5-4.3
# Excerpt: as §1
# [9] = molecular target: T1, Biotin-labeled N2 peptide; assay: SPR (BIACORE X100), biotin-N2 peptide on NeutrAvidin chip, antibody in solution; upper end of the printed range 5-53
# Excerpt: as §1
# [10] = molecular target: T2, N2 peptide (non-muscle myosin neo-epitope N2 12mer sequence); assay: SPR (BIACORE X100), immobilized antibody, N2 peptide in solution; lower end of the printed range 4-6 uM
# T2 construct: also called N2 12-mer peptide
# T2 peptide: LMKNMDPLNDNV
# Excerpt: as §1
# [11] = molecular target: T1, Biotin-labeled N2 peptide; assay: SPR (BIACORE X100), biotin-N2 peptide on NeutrAvidin chip, antibody in solution; upper end of the printed range 1-11
# Excerpt: as §1
# [12] = molecular target: T1, Biotin-labeled N2 peptide; assay: SPR (BIACORE X100), biotin-N2 peptide on NeutrAvidin chip, antibody in solution; upper end of the printed range 7-10
# Excerpt: as §1
# [13] = molecular target: T2, N2 peptide (non-muscle myosin …); assay: SPR (BIACORE X100), antibody captured by anti-human Fc, N2 peptide in solution
# Excerpt: as §2, with “The remaining sequences represent the germline sequences with the highest homology that encode productive antibody. All of the humanized sequences maintain the murine 21G6 CDR regions which are shown inside the boxes in FIG. 1. The humanized” for “The humanized”
# [14] = molecular target: T1, Biotin-labeled N2 peptide; assay: SPR (BIACORE X100), biotin-N2 peptide on NeutrAvidin chip, antibody in solution; upper end of the printed range 7-19
# Excerpt: as §1
binder,measurement,setting,value
B1,kon,[1],32000 M⁻¹ s⁻¹
same,Kd,[2],240 nM
same,koff,[3],0.0091 s⁻¹
same,Kd,[4],280 to 420 nM
B2,koff,[5],0.0065 s⁻¹
same,Kd,[2],280 nM
same,kon,[6],52000 M⁻¹ s⁻¹
same,Kd,[4],300 nM
B3,Kd,[2],320 nM
same,koff,[7],0.0065 s⁻¹
same,kon,[8],43000 M⁻¹ s⁻¹
same,Kd,[4],100 to 430 nM
B4,koff,[9],0.053 s⁻¹
same,Kd,[2],313 to 540 nM
same,Kd,[10],4000 to 6000 nM
same,kon,[11],110000 M⁻¹ s⁻¹
same,Kd,[4],200 to 400 nM
B5,Kd,[2],196 to 240 nM
same,kon,[12],100000 M⁻¹ s⁻¹
same,Kd,[13],5600 nM
same,koff,[14],0.019 s⁻¹
same,Kd,[4],100 to 200 nM
